Experimental data reported in PMC6600523, “Interference with Amyloid-β Nucleation by Transient Ligand Interaction” (Molecules, 2019).
Where a SMILES comes first, the peptide text is derived from it. [ ]: non-standard residue; d: D form. The star is where a group is joined. 5FAM = O=C1OC2(c3ccc(O)cc3Oc3cc(O)ccc32)c2ccc(C(=O)*)cc21

Key:
[1] = Sedimentation velocity AUC with fluorescence detection, labeled peptide alone; format: physicochemical; conditions: AUC-FDS, 60,000 rpm, 20 °C, 15 h, c(s) model; 0.2 μM FITC-D3 in 20 mM sodium phosphate, 50 mM NaCl pH 7.4, 0.0004% PEI; 0.33 μM FITC-Aβ42 in 55 mM Tris, 50 mM NaCl pH 7.4, 0.01% Tw20
Method: All measurements were performed using an XL-A analytical ultracentrifuge (Beckman coulter, Brea, CA, USA). […] All samples were prepared in 20 mM sodium phosphate, 50 mM NaCl (pH 7.4) containing 0.0004% PEI (w/v). Samples were then loaded into 3-mm double-sector titanium cells (Nanolytics, Potsdam, Germany), with each sector containing a 100 μL sample. The detection system uses an excitation laser at 488 nm and an emission cut-off filter at 505 nm to collect fluorescence signals. The amplification factor was adjusted to the same value for all samples for comparability. […] Data was acquired at 20 nm radial resolution. After thorough thermal equilibration the centrifugation was carried out at 60,000 rpm (289,000× g) at 20 °C for 15 h. Carrier proteins, such as albumin and kappa casein, are usually recommended to minimize unspecific surface adsorption for fluorescence-based AUC [56]. All sedimentation profiles were subjected to the software package SEDFIT (version 15.01b) for data evaluation. The data was analyzed with the continuous distribution c(s) Lamm equation model to obtain the sedimentation coefficient distributions. Fitting parameters (Table S1) including the buffer density and viscosity were determined using Sednterp (version 20130813BETA). […]

Aβ42 [2] = molecular target: T1, Aβ42 (Homo sapiens, UniProt P05067); assay: Sedimentation velocity AUC with fluorescence detection, Aβ42 and D3 mixtures; format: binding
T1 construct: purchased Bachem H-1368.1000
Method: All measurements were performed using an XL-A analytical ultracentrifuge (Beckman coulter, Brea, CA, USA). […] All samples were prepared in 20 mM sodium phosphate, 50 mM NaCl (pH 7.4) containing 0.0004% PEI (w/v). Samples were then loaded into 3-mm double-sector titanium cells (Nanolytics, Potsdam, Germany), with each sector containing a 100 μL sample. The detection system uses an excitation laser at 488 nm and an emission cut-off filter at 505 nm to collect fluorescence signals. The amplification factor was adjusted to the same value for all samples for comparability. […] Data was acquired at 20 nm radial resolution. After thorough thermal equilibration the centrifugation was carried out at 60,000 rpm (289,000× g) at 20 °C for 15 h. Carrier proteins, such as albumin and kappa casein, are usually recommended to minimize unspecific surface adsorption for fluorescence-based AUC [56]. All sedimentation profiles were subjected to the software package SEDFIT (version 15.01b) for data evaluation. The data was analyzed with the continuous distribution c(s) Lamm equation model to obtain the sedimentation coefficient distributions. Fitting parameters (Table S1) including the buffer density and viscosity were determined using Sednterp (version 20130813BETA). […] Final graphs were generated using GUSSI (version 1.2.1) and sedimentation coefficients were standardized to s-values in pure water at 20 °C (s20,w).

Aβ42 [3] = molecular target: T1, Aβ42; assay: ThT assay, fibrillation kinetics of Aβ42; format: biochemical; conditions: 50 mM NaCl pH 7.4, 20 °C, AmyloFit fit, triplicate
Method: ThT was added at a final concentration of 5 μM in all samples. The final volume of each sample was 200 μL. Samples were prepared on ice and were pipetted into a 96-well plate afterwards. The plate was sealed with a microplate sealing film. All measurements were conducted at 20 °C with a microplate reader (Infinite M200, Tecan, Männedorf, Switzerland). The fluorescence was recorded at an excitation wavelength (λex) of 445 nm and an emission wavelength (λem) of 485 nm every 30 min for 120 h. […] All samples were prepared in triplicate.
The ThT data was then subjected to the online server AmyloFit with a customized sigmoidal Equation (1) to determine the lag time tlag , and the half completion time of the aggregation process t1/2 , according to previous studies. (1) It=k0t+A/1+exp−kt−t1/2, where k0 represents the slope of the baseline, A is the amplitude, k denotes the apparent elongation rate constant. The lag time tlag can be derived from the intercept between the time axis and the tangent with slope k from the midpoint of the fitted sigmoidal curve, which is given by the following Equation (2):(2) tlag=t1/2−2/k

[4] = 20 μM Aβ42 with (label D3, 10:1) or without (label Aβ42) 2 μM D3, 55 mM Tris-HCl

T1 sequence (P05067 672-713 limits assumed): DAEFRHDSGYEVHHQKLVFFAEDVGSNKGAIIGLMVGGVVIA

Compound	Sedimentation coefficient s20,w of the labeled peptide alone [1]	s20,w of the main peak of FITC-D3 with Aβ42 (Aβ42 [2]; 0.2 μM FITC-D3 with 50-fold excess of Aβ42, 20 mM sodium phosphate, 50 mM NaCl pH 7.4, 0.0004% PEI, interpreted as 1:1 complex)	Averaged s20,w of the new species between 1 and 2 S, FITC-D3 with Aβ42 (Aβ42 [2]; 0.2 μM FITC-D3 with Aβ42, c(s) analyses from five independent experiments, complexes with higher stoichiometries)	Lag time tlag of fibrillation kinetics (Aβ42 [3]; 20 μM Aβ42 with (label D3) or without (label Aβ42) 2 μM D3, 20 mM sodium phosphate, 5 μM ThT)	Lag time tlag of fibrillation kinetics, Tris-HCl buffer (Aβ42 [3]; [4])	Slope k of fibrillation kinetics, Tris-HCl buffer (Aβ42 [3]; [4])
CC(C)C[C@@H](NC(=O)[C@@H](CCCNC(=N)N)NC(=O)[C@H](NC(=O)[C@@H](CCCNC(=N)N)NC(=O)[C@H]1CCCN1C(=O)[C@H](N)CCCNC(=N)N)[C@H](C)O)C(=O)N[C@H](Cc1c[nH]cn1)C(=O)N[C@@H](C(=O)N[C@H](Cc1c[nH]cn1)C(=O)N[C@H](CCCNC(=N)N)C(=O)N[C@H](CC(N)=O)C(=O)N[C@H](CCCNC(=N)N)C(=O)N[C@@H](CCCCNC(=O)c1ccc2c(c1)C(=O)OC21c2ccc(O)cc2Oc2cc(O)ccc21)C(N)=O)[C@H](C)O [FITC-D3] (H-[dR][dP][dR][dT][dR][dL][dH][dT][dH][dR][dN][dR]K(5FAM)-NH2; N-terminus and C-terminus assumed)	0.54 ± 0.02 S	0.71 ± 0.04 S	1.45 ± 0.08 S			
Aβ42: unlabeled amyloid-β peptide 42, Bachem product No. H-1368.1000 [reference compound]				17.3 ± 1.6 h	14.5 ± 1.4 h	0.13 ± 0.01
